Measured values: paper PMC9405553, “G-Quadruplex Formed by the Promoter Region of the hTERT Gene: Structure-Driven Effects on DNA Mismatch Repair Functions”

Assays:
ecMutS [1] = target: T1, ecMutS (Escherichia coli, UniProt P23909 1-853); assay: EMSA; ecMutS: 20 mM HEPES-KOH pH 7.9, 5 mM MgCl2, 120 mM KCl, 0.5 mg/mL BSA, 1 mM ADP, 37 C 15 min, 5 nM DNA; ecMutL/ngMutL: 20 mM HEPES pH 8.0, 100 mM KCl, 0.5 mg/mL BSA, 1 mM DTT, on ice 10 min, 20 nM DNA; gels in TAE at 4 C; conditions: protein: recombinant; tags: N-terminal His6; chain copies: 2; text says bottom strand; blunt, one T:G mismatch at strand 1 position 22
T1 sequence: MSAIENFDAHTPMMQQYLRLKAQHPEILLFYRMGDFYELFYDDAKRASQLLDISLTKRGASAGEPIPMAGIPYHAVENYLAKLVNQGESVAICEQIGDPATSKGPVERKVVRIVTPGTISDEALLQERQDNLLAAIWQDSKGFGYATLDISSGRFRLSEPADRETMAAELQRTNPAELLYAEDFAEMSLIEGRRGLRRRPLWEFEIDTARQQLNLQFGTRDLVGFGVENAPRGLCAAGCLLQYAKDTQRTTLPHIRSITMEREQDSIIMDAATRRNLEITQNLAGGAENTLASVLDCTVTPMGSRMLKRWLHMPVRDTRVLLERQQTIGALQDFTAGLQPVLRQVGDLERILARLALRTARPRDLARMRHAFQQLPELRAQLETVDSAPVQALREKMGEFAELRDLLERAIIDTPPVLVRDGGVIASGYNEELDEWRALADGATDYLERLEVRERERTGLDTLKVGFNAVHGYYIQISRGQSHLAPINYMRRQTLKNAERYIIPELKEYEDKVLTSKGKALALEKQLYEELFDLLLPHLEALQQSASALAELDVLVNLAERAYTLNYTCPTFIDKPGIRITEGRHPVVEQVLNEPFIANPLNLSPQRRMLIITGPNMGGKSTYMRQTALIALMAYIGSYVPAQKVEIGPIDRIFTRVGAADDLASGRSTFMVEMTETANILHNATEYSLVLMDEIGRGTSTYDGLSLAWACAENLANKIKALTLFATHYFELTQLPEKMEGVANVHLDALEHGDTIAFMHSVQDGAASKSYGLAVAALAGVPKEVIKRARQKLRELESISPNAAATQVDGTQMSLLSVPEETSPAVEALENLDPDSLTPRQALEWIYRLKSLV

ecMutS [2] = target: T1, ecMutS; assay: EMSA; 1 mM ADP, 5 mM MgCl2; ecMutS: 20 mM HEPES-KOH pH 7.9, 5 mM MgCl2, 120 mM KCl, 0.5 mg/mL BSA, 1 mM ADP, 37 C 15 min, 5 nM DNA; ecMutL/ngMutL: 20 mM HEPES pH 8.0, 100 mM KCl, 0.5 mg/mL BSA, 1 mM DTT, on ice 10 min, 20 nM DNA; gels in TAE at 4 C; conditions: protein: recombinant, tags: N-terminal His6, chain copies: 2
ecMutL = ecMutL (Escherichia coli (K12 in Fig. S2 legend), UniProt P23367 1-615); assay: EMSA; ecMutS: 20 mM HEPES-KOH pH 7.9, 5 mM MgCl2, 120 mM KCl, 0.5 mg/mL BSA, 1 mM ADP, 37 C 15 min, 5 nM DNA; ecMutL/ngMutL: 20 mM HEPES pH 8.0, 100 mM KCl, 0.5 mg/mL BSA, 1 mM DTT, on ice 10 min, 20 nM DNA; gels in TAE at 4 C; conditions: protein: recombinant, tags: N-terminal His6, chain copies: 2
ngMutL = target: T2, ngMutL (Neisseria gonorrhoeae (FA 1090 in Fig. …, UniProt Q5F8M6 1-658)); assay: as above; conditions: protein: recombinant, tags: N-terminal His6, chain copies: 2
T2 sequence: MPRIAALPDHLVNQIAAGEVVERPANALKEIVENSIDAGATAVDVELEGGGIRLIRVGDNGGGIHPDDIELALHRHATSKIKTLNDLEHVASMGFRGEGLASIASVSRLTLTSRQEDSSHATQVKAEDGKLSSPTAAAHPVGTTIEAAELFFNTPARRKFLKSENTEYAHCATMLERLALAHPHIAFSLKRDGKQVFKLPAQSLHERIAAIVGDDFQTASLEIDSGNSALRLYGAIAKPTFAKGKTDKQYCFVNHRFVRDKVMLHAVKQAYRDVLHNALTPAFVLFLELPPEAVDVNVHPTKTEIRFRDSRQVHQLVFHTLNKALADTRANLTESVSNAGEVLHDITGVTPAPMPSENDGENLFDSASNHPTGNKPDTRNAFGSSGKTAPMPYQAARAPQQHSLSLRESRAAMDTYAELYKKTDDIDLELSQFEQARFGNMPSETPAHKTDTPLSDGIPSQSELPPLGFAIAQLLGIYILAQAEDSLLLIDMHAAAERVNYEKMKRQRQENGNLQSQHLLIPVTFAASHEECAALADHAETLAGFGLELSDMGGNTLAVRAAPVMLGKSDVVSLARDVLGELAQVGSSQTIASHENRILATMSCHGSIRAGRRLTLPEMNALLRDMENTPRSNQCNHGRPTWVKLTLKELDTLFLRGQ

ecMutS [3] = target: T1, ecMutS; assay: competition; vs ds76-G/T-3', 65 nM ecMutS dimer; ecMutS: 20 mM HEPES-KOH pH 7.9, 5 mM MgCl2, 120 mM KCl, 0.5 mg/mL BSA, 1 mM ADP, 37 C 15 min, 5 nM DNA; ecMutL/ngMutL: 20 mM HEPES pH 8.0, 100 mM KCl, 0.5 mg/mL BSA, 1 mM DTT, on ice 10 min, 20 nM DNA; gels in TAE at 4 C; conditions: protein: recombinant; tags: N-terminal His6; chain copies: 2; label: none; three stacked parallel intramolecular G4s
[4] = text says 5' for ecMutS assays, single parallel intramolecular G4
[5] = label: 5'-TAMRA, three stacked parallel intramolecular G4s
[6] = label: 3'-TAMRA, three stacked parallel intramolecular G4s

Chain of ecMutL (P23367 whole entry): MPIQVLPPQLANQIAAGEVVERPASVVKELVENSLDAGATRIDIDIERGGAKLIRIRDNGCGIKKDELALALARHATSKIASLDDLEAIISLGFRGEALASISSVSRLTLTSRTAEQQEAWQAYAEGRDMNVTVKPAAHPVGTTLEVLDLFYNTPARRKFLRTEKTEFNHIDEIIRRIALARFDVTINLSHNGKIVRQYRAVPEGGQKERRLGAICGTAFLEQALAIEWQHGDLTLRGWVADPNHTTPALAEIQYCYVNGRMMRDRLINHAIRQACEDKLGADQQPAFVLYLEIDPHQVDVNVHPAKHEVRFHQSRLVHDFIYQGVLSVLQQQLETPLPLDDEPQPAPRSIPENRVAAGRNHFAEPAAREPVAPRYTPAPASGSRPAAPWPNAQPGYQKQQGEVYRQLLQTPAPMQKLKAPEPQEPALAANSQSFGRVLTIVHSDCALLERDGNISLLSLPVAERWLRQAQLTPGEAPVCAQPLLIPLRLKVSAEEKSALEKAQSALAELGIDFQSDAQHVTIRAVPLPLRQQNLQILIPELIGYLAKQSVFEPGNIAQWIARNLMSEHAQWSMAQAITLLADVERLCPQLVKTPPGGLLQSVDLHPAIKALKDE

B1: ds76-G/T-3' (dsDNA)
DNA 1: ATAGGACGCTGACACTGGTGCTTGGCAGCTGAGCCATATGCTCGAGTAACGCTCATAGGATCCAAGCGCGAAAGGA
DNA 2: TCCTTTCGCGCTTGGATCCTATGAGCGTTACTCGAGCATATGGCTCAGCTGCCAGGCACCAGTGTCAGCGTCCTAT
ecMutS [1]
  Kd: 35 ± 3 nM

B2: 95G4 (structured_DNA)
DNA: ATAGGACGCTGACACTGGTGCTTGGCAGCTGAGCCATATTTGGGTGGGTGGGTGGGTTGCTCGAGTAACGCTCATAGGATCCAAGCGCGAAAGGA
ecMutS [2]; [4]
  Kd: 38 ± 5 nM
ecMutL; [4]
  Kd: 120 ± 20 nM
ngMutL; [4]
  Kd: 41 ± 1 nM

B3: WT-5' (structured_DNA)
DNA: GCCGCGGAAAGGAAGGGGAGGGGCTGGGAGGGCCCGGAGGGGGCTGGGCCGGGGACCCGGGAGGGGTCGGGACGGGGCGGGGTCCGCGCGGAGGAG
ecMutS [2]; [5]
  Kd: 15 ± 6 nM
ecMutL; [5]
  Kd: 115 ± 30 nM

B4: WT (structured_DNA)
DNA: GCCGCGGAAAGGAAGGGGAGGGGCTGGGAGGGCCCGGAGGGGGCTGGGCCGGGGACCCGGGAGGGGTCGGGACGGGGCGGGGTCCGCGCGGAGGAG
ecMutS [3]
  IC50: 32 ± 3 nM
  Ki: 28 ± 5 nM

B5: G242,243A (unlabeled) (structured_DNA)
DNA: GCCGCGGAAAGGAAGGGGAGGGGCTGGGAGGGCCCGGAGGGGGCTGGGCCGGAAACCCGGGAGGGGTCGGGACGGGGCGGGGTCCGCGCGGAGGAG
ecMutS [3]
  IC50: 28 ± 7 nM
  Ki: 25 ± 8 nM

B6: G228A-5' (structured_DNA)
DNA: GCCGCGGAAAGGAAGGGGAGGGGCTGGGAGGGCCCGGAAGGGGCTGGGCCGGGGACCCGGGAGGGGTCGGGACGGGGCGGGGTCCGCGCGGAGGAG
ecMutS [2]; [5]
  Kd: 24 ± 6 nM
ecMutL; [5]
  Kd: 170 ± 40 nM

B7: G242,243A-3' (structured_DNA)
DNA: GCCGCGGAAAGGAAGGGGAGGGGCTGGGAGGGCCCGGAGGGGGCTGGGCCGGAAACCCGGGAGGGGTCGGGACGGGGCGGGGTCCGCGCGGAGGAG
ngMutL; [6]
  Kd: 51 ± 2 nM

B8: G250A-5' (structured_DNA)
DNA: GCCGCGGAAAGGAAGGGGAGGGGCTGGGAGGGCCCGGAGGGGGCTGGGCCGGGGACCCGGAAGGGGTCGGGACGGGGCGGGGTCCGCGCGGAGGAG
ecMutS [2]; [5]
  Kd: 30 ± 7 nM
ecMutL; [5]
  Kd: 130 ± 30 nM

B9: G250A-3' (structured_DNA)
DNA: GCCGCGGAAAGGAAGGGGAGGGGCTGGGAGGGCCCGGAGGGGGCTGGGCCGGGGACCCGGAAGGGGTCGGGACGGGGCGGGGTCCGCGCGGAGGAG
ngMutL; [6]
  Kd: 42 ± 2 nM

B10: WT-3' (structured_DNA)
DNA: GCCGCGGAAAGGAAGGGGAGGGGCTGGGAGGGCCCGGAGGGGGCTGGGCCGGGGACCCGGGAGGGGTCGGGACGGGGCGGGGTCCGCGCGGAGGAG
ngMutL; [6]
  Kd: 49 ± 3 nM

B11: G228A (unlabeled) (structured_DNA)
DNA: GCCGCGGAAAGGAAGGGGAGGGGCTGGGAGGGCCCGGAAGGGGCTGGGCCGGGGACCCGGGAGGGGTCGGGACGGGGCGGGGTCCGCGCGGAGGAG
ecMutS [3]
  IC50: 35 ± 4 nM
  Ki: 31 ± 6 nM

B12: G250A (unlabeled) (structured_DNA)
DNA: GCCGCGGAAAGGAAGGGGAGGGGCTGGGAGGGCCCGGAGGGGGCTGGGCCGGGGACCCGGAAGGGGTCGGGACGGGGCGGGGTCCGCGCGGAGGAG
ecMutS [3]
  IC50: 40 ± 15 nM
  Ki: 35 ± 15 nM

B13: G228A-3' (structured_DNA)
DNA: GCCGCGGAAAGGAAGGGGAGGGGCTGGGAGGGCCCGGAAGGGGCTGGGCCGGGGACCCGGGAGGGGTCGGGACGGGGCGGGGTCCGCGCGGAGGAG
ngMutL; [6]
  Kd: 44 ± 3 nM

B14: G242,243A-5' (structured_DNA)
DNA: GCCGCGGAAAGGAAGGGGAGGGGCTGGGAGGGCCCGGAGGGGGCTGGGCCGGAAACCCGGGAGGGGTCGGGACGGGGCGGGGTCCGCGCGGAGGAG
ecMutS [2]; [5]
  Kd: 27 ± 4 nM
ecMutL; [5]
  Kd: 110 ± 20 nM

B15: ds96/96* (dsDNA)
DNA 1: ACCTGGATGCCTATAGGGCGAATTGGGTACCGCTGAATTGCACTGGACTTGATCCTCGATGATCCTAAGCTAAGCTTCAGCTCCAGCCTAAGCCTG
DNA 2: CAGGCTTAGGCTGGAGCTGAAGCTTAGCTTAGGATCATCGAGGATCGAGTCCGGTGCAATTCAGCGGTACCCAATTCGCCCTATAGGCATCCAGGT
ngMutL; label: 3'-TAMRA on strand 1, blunt
  Kd: 125 ± 5 nM
